The target of one test is T1, GFP-TONSL N571A (Homo sapiens, UniProt Q96HA7 1-1378).
T1 construct: also called TONSL N571A / GFP; not shown: N-terminal GFP tag
T1 sequence: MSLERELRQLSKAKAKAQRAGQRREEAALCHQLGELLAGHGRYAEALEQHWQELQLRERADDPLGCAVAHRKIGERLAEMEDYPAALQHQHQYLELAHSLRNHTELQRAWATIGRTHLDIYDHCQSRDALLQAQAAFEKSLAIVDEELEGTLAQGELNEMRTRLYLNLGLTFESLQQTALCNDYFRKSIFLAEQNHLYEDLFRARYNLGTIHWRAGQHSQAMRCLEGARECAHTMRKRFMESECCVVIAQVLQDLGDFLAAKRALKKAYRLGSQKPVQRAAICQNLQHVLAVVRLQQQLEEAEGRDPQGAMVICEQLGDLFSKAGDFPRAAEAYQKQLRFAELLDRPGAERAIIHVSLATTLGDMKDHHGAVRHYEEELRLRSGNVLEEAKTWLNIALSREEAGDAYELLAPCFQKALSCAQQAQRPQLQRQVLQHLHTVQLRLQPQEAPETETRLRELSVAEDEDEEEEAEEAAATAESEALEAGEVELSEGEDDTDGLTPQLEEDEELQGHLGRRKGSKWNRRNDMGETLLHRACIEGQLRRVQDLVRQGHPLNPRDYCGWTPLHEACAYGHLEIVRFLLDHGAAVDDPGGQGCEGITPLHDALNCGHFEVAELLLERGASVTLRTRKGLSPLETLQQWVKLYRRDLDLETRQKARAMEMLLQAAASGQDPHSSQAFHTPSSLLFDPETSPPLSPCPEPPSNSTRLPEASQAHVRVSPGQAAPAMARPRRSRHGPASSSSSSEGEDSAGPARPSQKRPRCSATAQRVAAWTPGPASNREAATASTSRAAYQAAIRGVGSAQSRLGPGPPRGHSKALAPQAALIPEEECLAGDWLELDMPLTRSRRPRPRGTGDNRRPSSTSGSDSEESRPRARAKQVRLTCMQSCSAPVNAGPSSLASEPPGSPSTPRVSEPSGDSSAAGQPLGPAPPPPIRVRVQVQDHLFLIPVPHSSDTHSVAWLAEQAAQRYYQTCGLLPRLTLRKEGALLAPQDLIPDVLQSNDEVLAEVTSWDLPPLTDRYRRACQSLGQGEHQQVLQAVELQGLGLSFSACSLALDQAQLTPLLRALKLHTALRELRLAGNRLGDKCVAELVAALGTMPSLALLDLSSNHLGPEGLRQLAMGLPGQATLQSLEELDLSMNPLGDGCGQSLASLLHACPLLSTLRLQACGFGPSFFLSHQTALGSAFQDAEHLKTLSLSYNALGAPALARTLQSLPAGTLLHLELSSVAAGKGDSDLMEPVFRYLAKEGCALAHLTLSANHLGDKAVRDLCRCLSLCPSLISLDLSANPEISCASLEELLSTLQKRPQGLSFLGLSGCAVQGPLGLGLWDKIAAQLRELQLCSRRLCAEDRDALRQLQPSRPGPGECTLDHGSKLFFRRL
Nature of the test: GFP immunoprecipitation of GFP-TONSL from transfected HeLa S3 cells, western blot (co-IP; association may be indirect). (In western blotting, separated proteins are transferred to a membrane and probed.)

Test [1] concerns the target T2, GFP-TONSL wild type (full length) (Homo sapiens, UniProt Q96HA7 1-1378).
T2 construct: Expressed in U-2-OS or HeLa S3 cells; assayed in cell extracts; also called GFP-TONSL WT; TONSL WT / GFP; not shown: N-terminal GFP tag
T2 sequence: T1 sequence with A571N
The description is as above.

Changes are numbered by the printed parent chain.

B1: MMS22L (endogenous, in cell extracts) (other, UniProt Q6ZRQ5 1-1243, looked up)
chain: MENCSAASTFLTDSLELELGTEWCKPPYFSCAVDNRGGGKHFSGESYLCSGALKRLILNLDPLPTNFEEDTLEIFGIQWVTETALVNSSRELFHLFRQQLYNLETLLQSSCDFGKVSTLHCKADNIRQQCVLFLHYVKVFIFRYLKVQNAESHVPVHPYEALEAQLPSVLIDELHGLLLYIGHLSELPSVNIGAFVNQNQIKLFPPSWHLLHLHLDIHWLVLEILYMLGEKLKQVVYGHQFMNLASDNLTNISLFEEHCETLLCDLISLSLNRYDKVRSSESLMSDQCPCLCIKELWVLLIHLLDHRSKWFVSESFWNWLNKLLKTLLEKSSDRRRSSMPVIQSRDPLGFSWWIITHVASFYKFDRHGVPDEMRKVESNWNFVEELLKKSISVQGVILEEQLRMYLHCCLTLCDFWEPNIAIVTILWEYYSKNLNSSFSISWLPFKGLANTMKSPLSMLEMVKTCCCDKQDQELYKSSSSYTIFLCILAKVVKKAMKSNGPHPWKQVKGRIYSKFHQKRMEELTEVGLQNFFSLFLLLAAVAEVEDVASHVLDLLNFLKPAFVTSQRALIWKGHMAFLLMYAQKNLDIGVLAEKFSCAFREKAKEFLVSKNEEMVQRQTIWTLLSIYIDGVQEVFETSYCLYPSHEKLLNDGFSMLLRACRESELRTVLSFLQAVLARIRSMHQQLCQELQRDNVDLFVQSSLSAKERHLAAVASALWRHFFSFLKSQRMSQVVPFSQLADAAADFTLLAMDMPSTAPSDFQPQPVISIIQLFGWDDIICPQVVARYLSHVLQNSTLCEALSHSGYVSFQALTVRSWIRCVLQMYIKNLSGPDDLLIDKNLEEAVEKEYMKQLVKLTRLLFNLSEVKSIFSKAQVEYLSISEDPKKALVRFFEAVGVTYGNVQTLSDKSAMVTKSLEYLGEVLKYIKPYLGKKVFSAGLQLTYGMMGILVKSWAQIFATSKAQKLLFRIIDCLLLPHAVLQQEKELPAPMLSAIQKSLPLYLQGMCIVCCQSQNPNAYLNQLLGNVIEQYIGRFLPASPYVSDLGQHPVLLALRNTATIPPISSLKKCIVQVIRKSYLEYKGSSPPPRLASILAFILQLFKETNTDIYEVELLLPGILKCLVLVSEPQVKRLATENLQYMVKACQVGSEEEPSSQLTSVFRQFIQDYGMRYYYQVYSILETVATLDQQVVIHLISTLTQSLKDSEQKWGLGRNIAQREAYSKLLSHLGQMGQDEMQRLENDNT
Turning to B1, the binding result (with GFP-TONSL N571A; in test [1]) was “binds” throughout.
